# Measured values: the supplement of paper PMC10724198
# ± gives the standard deviation of the averaged measurements.
# How the values were obtained:
# Saccharomyces cerevisiae [1] = assay: protein stability index of tFT-peptide fusion (C-terminal peptide) (PSI (0-1 scale)); higher = more stable (slower turnover); details: genetic background: wild type; temperature: 30 C
# Saccharomyces cerevisiae [2] = assay: as above
# Experimental: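 MPS profiling in S. cerevisiae of the tFT-X12 degron library: putative degron peptides plus stable controls, 12 aa, fused to the C-terminus of a sfGFP-mCherry timer. Cells are FACS-sorted into 8 mCherry/sfGFP bins and deep-sequenced. PSI runs from 0 (unstable) to 1 (stable). Backgrounds are wild type, das1Δ and doa10Δ at 30 °C, and wild type, das1Δ, cdc34-1 and cdc53-1 at 37 °C; 2-3 technical replicates each.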
# [3] = genetic background: cdc34-1, temperature: 37 C
# [4] = genetic background: cdc53-1, temperature: 37 C
# [5] = genetic background: das1 deletion, temperature: 30 C
# [6] = genetic background: das1 deletion, temperature: 37 C
# [7] = genetic background: doa10 deletion, temperature: 30 C
# [8] = genetic background: wild type, temperature: 30 C
# [9] = genetic background: wild type, temperature: 37 C
# 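Further: PSI is a weighted mean of sequencing reads over stability bins, variants kept only with over 10 reads, mCherry proximal and sfGFP distal, peptide attached via GGGS linker.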
Sequence,protein stability index (Saccharomyces cerevisiae [1]),protein stability index (Saccharomyces cerevisiae [2]; [3]),protein stability index (Saccharomyces cerevisiae [2]; [4]),protein stability index (Saccharomyces cerevisiae [2]; [5]),protein stability index (Saccharomyces cerevisiae [2]; [6]),protein stability index (Saccharomyces cerevisiae [2]; [7]),protein stability index (Saccharomyces cerevisiae [2]; [8]),protein stability index (Saccharomyces cerevisiae [2]; [9])
WSLPPLLSPLYF,0.667 ± 0.34,0.717 ± 0.035,0.753 ± 0.019,0.67 ± 0.016,0.758 ± 0.02,0.676 ± 0.024,0.672 ± 0.012,0.7198 ± 0.0018
WVCCFVWGCLIR,0.281 ± 0.0081,0.2 ± 0.044,0.187 ± 0.0078,0.239 ± 0.021,0.353 ± 0.027,0.295 ± 0.0035,0.233 ± 0.019,0.303 ± 0.0074
WVLSRAAFVFFF,0.44 ± 0.018,0.587 ± 0.04,0.612 ± 0.0096,0.473 ± 0.019,0.606 ± 0.011,0.322 ± 0.0078,0.337 ± 0.022,0.5201 ± 0.0035
WVVLVCGFVLLG,0.3175 ± 0.0027,0.246 ± 0.0069,0.369 ± 0.0077,0.243 ± 0.042,0.442 ± 0.0073,0.22 ± 0.0029,0.234 ± 0.019,0.361 ± 0.012
YAFSTCTILIRF,0.328 ± 0.048,0.187 ± 0.0071,0.154 ± 0.044,0.211 ± 0.034,0.338 ± 0.015,0.38 ± 0.013,0.222 ± 0.018,0.3071 ± 0.0018
YFTNCYRSILTF,0.4436 ± 0.00083,0.4366 ± 0.0011,0.487 ± 0.013,0.367 ± 0.047,0.51517 ± 0.00037,0.3196 ± 0.00079,0.355 ± 0.031,0.48177 ± 0.00025
YGWILQLPCFVI,0.338 ± 0.0082,0.246 ± 0.02,0.237 ± 0.00093,0.24 ± 0.031,0.37294 ± 0.00032,0.219 ± 0.0057,0.245 ± 0.023,0.315 ± 0.027
YHDKLRAIEKFF,0.331 ± 0.065,0.669 ± 0.03,0.725 ± 0.0075,0.635 ± 0.018,0.74 ± 0.03,0.199 ± 0.019,0.219 ± 0.04,0.49 ± 0.0052
YLCFVVSCGVLR,0.383 ± 0.086,0.421 ± 0.0051,0.475 ± 0.026,0.327 ± 0.031,0.529 ± 0.0087,0.295 ± 0.018,0.313 ± 0.017,0.5035 ± 0.0016
YLFFSCIFTFSC,0.316 ± 0.025,0.121 ± 0.025,0.198 ± 0.027,0.179 ± 0.024,0.331 ± 0.014,0.189 ± 0.011,0.211 ± 0.091,0.273 ± 0.018
YLFLPGGEVSVH,0.487 ± 0.083,0.641 ± 0.033,0.653 ± 0.019,0.538 ± 0.032,0.666 ± 0.0033,0.5204 ± 0.0031,0.553 ± 0.019,0.6369 ± 0.00098
YLGSPLSLMLVA,0.475 ± 0.032,0.48 ± 0.022,0.491 ± 0.026,0.379 ± 0.031,0.51 ± 0.006,0.332 ± 0.031,0.355 ± 0.022,0.481 ± 0.009
YPFSLVLGVFAF,0.405 ± 0.033,0.367 ± 0.02,0.389 ± 0.022,0.298 ± 0.028,0.456 ± 0.0094,0.285 ± 0.01,0.325 ± 0.0062,0.4104 ± 0.0034
YPPLFLLMRGVL,0.258 ± 0.075,0.594 ± 0.021,0.694 ± 0.013,0.605 ± 0.018,0.712 ± 0.021,0.157 ± 0.011,0.175 ± 0.034,0.357 ± 0.016
YRHYGVARKKLA,0.152 ± 0.0056,0.592 ± 0.075,0.7016 ± 0.0023,0.634 ± 0.034,0.713 ± 0.028,0.081 ± 0.009,0.134 ± 0.01,0.127 ± 0.016
YTQKFTFYGLPA,0.027 ± 0.023,0.701 ± 0.035,0.721 ± 0.013,0.639 ± 0.038,0.727 ± 0.013,0.618 ± 0.033,0.616 ± 0.016,0.708 ± 0.02
YVRHDKLILSFC,0.489 ± 0.013,0.492 ± 0.026,0.529 ± 0.041,0.427 ± 0.021,0.5562 ± 0.0027,0.3915 ± 0.002,0.414 ± 0.019,0.54 ± 0.011
YVSLPFVVWWFC,0.309 ± 0.033,0.443 ± 0.029,0.533 ± 0.016,0.414 ± 0.026,0.591 ± 0.0081,0.1839 ± 0.0011,0.198 ± 0.014,0.375 ± 0.0063
YWFWLLIGSFSC,0.4576 ± 0.0029,0.487 ± 0.053,0.51 ± 0.013,0.382 ± 0.026,0.526 ± 0.011,0.36 ± 0.019,0.382 ± 0.024,0.504 ± 0.012
YWGFHPCCAFGY,0.711 ± 0.0091,0.722 ± 0.048,0.784 ± 0.012,0.636 ± 0.013,0.77 ± 0.023,0.654 ± 0.035,0.659 ± 0.019,0.745 ± 0.051
YYQVSQKIQRKQ,0.435 ± 0.065,0.681 ± 0.012,0.708 ± 0.021,0.639 ± 0.023,0.726 ± 0.042,0.323 ± 0.0077,0.371 ± 0.018,0.584 ± 0.014
